Test results reported in PMC11764342, “A Novel Nitrite Reductase from Acinetobacter haemolyticus for Efficient Degradation of Nitrite” (Biomolecules, 2025).

Substrate: O=NO
Experiment: purified protein
Assay type: biochemical, Acinetobacter haemolyticus
Settings: dithionite-reduced methyl viologen as electron donor, 30 °C, optimum pH (printed as 7.5 in abstract, 7 in results; assay PBS pH 7.0), NaNO2 0.51-2.17 mmol/L

B1: AhNiR (Acinetobacter haemolyticus CIP 64.3 = MTCC 9819) (protein)
chain: MYLYTDFDQQLINQRVAQFRDQTERYLAGKLTEDEYRPLRLQNGLYVQRYAPMLRIAVPYGLMNTKQLRKIAEIATEYDRGYAHVSTRQNIQLNWPALEDVPDILEELATVQMHAVQTSGNCIRNTTTDQFAGVVAGEIADPRPTCELIRQWSTFHPEFAFLPRKFKIAVSALAETDRAATAFHDIGVYIVRNEAGEIGYKIMAGGGLGRTPIIGSVIRDFLPREDLIAYLEATLRVYNLHGRRDNKYKARIKILVKALTPEVFAQKVEAEFEHTREALKIQPEILKKLDEEFTPFDYQDLEDQDFTALFAEYPKFKQWFNVNTNAHKVKGYRIVTISLKRAGIAPGDMTSEEMNLIADLADKYTFGEFRTTHEQNISLVDVPQKDLFELWQTLEQNDMARAHIGFITDIICCPGGDFCSLANAKSIPISEAITRRFEDLDTIYNLGELDLNISGCMNACGHHHVGNIGILGVDKKGAEFYQITLGGNADHDASIGDILGPSFAADAVPDVIEEILNTYLDLRTEGERFIDTYRRVGIQPFKERAYA
notes: whole gene in pET28a (BamHI/XhoI), N-terminal His tag, E. coli BL21(DE3), Ni-NTA; predicted 61929 Da
Km: 1530 µM
